Experimental data from paper PMC6651862.

Biological target: HCMV trimeric gH/gL recombinant protein (human cytomegalovirus, strain Merlin | T4 phage) (UniProt F5HCH8)
Assay: native gel or EMSA

Substance: HCMV trimeric gH/gL recombinant protein (from UniProt F5HCH8;Q6SW67)
- stoichiometry N: 3
